Measured values from publication PMC5655542, “HpARI Protein Secreted by a Helminth Parasite Suppresses Interleukin-33” (Immunity, 2017).

Biological target: T1, H. polygyrus Alarmin Release Inhibitor (HpARI), recombinant mature 6-His and Myc-tagged protein (Heligmosomoides polygyrus)
T1 construct: HpARI, Heligmosomoides polygyrus; 251-aa protein including a 16-aa signal peptide; the mature protein (26 kDa, three CCP-like modules) was expressed; the CCP1/2 construct starts at amino acid 17; Codon-optimised synthetic gene cloned with AscI and NotI into pSecTAG2A; also called candidate D; not shown: myc, C-terminal, kept; His6, C-terminal, kept
Test: SPR; BIAcore T200; HpARI captured via its 6-His tag on a Ni2+-NTA chip to 400 RU; cytokine injected (mIL-33 6.2-167 nM, hIL-33 0.062-1.67 μM); 25°C; 10 mM NaH2PO4 pH 7.5, 150 mM NaCl, 50 μM EDTA, 0.05% surfactant P20; single kinetic titration, global 1:1 fit
Settings: both partners purified

T1 sequence (A0A3P7XL18 63-297): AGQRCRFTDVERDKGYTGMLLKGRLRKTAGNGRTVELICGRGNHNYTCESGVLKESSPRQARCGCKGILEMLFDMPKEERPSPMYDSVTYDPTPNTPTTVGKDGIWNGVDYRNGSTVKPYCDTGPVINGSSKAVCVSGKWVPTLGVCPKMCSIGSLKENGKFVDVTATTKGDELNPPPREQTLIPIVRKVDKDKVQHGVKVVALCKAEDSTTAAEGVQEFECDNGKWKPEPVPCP

B1: recombinant murine IL-33, untreated (reduced, active form) (ligand)
chain: SIQGTSLLTQSPASLSTYNDQSVSFVLENGCYVINVDDSGKDQEQDQVLLRYYESPCPASQSGDGVDGKKLMVNMSPIKDTDIWLHANDKDYSVELQRGDVSPPEQAFFVLHKKSSDFVSFECKNLPGTYIGVKDNQLALVEEKDESCNNIMFKLSKI
modifications: reduced (free cysteines, no disulfides), active form; limits not given, taken as the usual commercial mature mouse IL-33 (Ser109-Ile266, UniProt chain 109-266)
  Kd: 0.56 ± 0.1 nM
  stoichiometry N: 1
